Test results as given in the RNAGym collection of RNA variant scans (doi:10.7554/elife.80360).

B1: Hairpin Ribozyme (parent)
chain: GUCCUCUUUCACGUGCGCGUGAAAGAGAGAAGUGAACCAGAGAAACACACGUUGUGGUAUAUUACCUGGUA

Variants of: B1
Assay: self-cleavage, relative activity (ratio to wild type); higher = more cleavage; co-transcriptional

Variant	self-cleavage
U20C A43U	0.125
G19A U52G	0.735
U20C A64U	0.152
G19C A43C	0.11
G19A A43C	0.15
U20G A24U	0.731
G19U U20G	0.707
U20C A36G	1
C18U A31G	0.721
C18U A31U	0.112
G19C G29C	0.111
G19C C50A	0.264
U20C G68U	0.257
U20C G68C	0.219
G19A G42U	0.331
G19U G21U	0.784
G19C G21C	0.493
G19A G40A	0.226
G19A G40U	0.179
C18U U67G	0.303
G19A A71U	0.648
G19A A71G	0.857
C18U G56U	0.115
C18U G56C	0.179

Variant	self-cleavage
C18U A61U	0.22
C18U A61C	0.17
U20C G29C	0.143
U20G C38U	0.542
U20G C38A	0.184
G19U G68A	0.286
U20G G68U	0.297
C18U U62G	0.0807
C18U A41G	1.04
U20C A28G	1.17
U20C A28C	0.374
U20C A28U	0.393
G19C A59C	0.225
G19C A59U	0.19
G19A C48A	0.136
G19U U53G	0.772
G19U U53A	0.971
G19U U53C	0.952
C18U A59C	0.237
C18U A59U	0.176
C18U C46U	0.195
U20C U62A	0.202
U20C U62G	0.116
C18U G42U	0.407

Variant	self-cleavage
C18U G29A	0.194
U20G A59C	0.313
U20A C46U	0.183
G19C A39G	0.28
G19A G68C	0.194
G19A G68A	0.265
G19C A23G	0.611
G19C A47G	0.277
U20C C50G	0.262
U20C C50U	0.476
U20C A71U	0.79
U20C A71C	1.28
U20C A22U	0.602
C18U A44C	0.146
C18U A39U	0.429
C18U A39C	0.66
G19U C50G	0.199
U20A A49G	0.437
G19U A26C	0.238
G19U A26G	0.849
G19C G69U	0.212
G19A A47U	0.144
U20C A30C	0.217
U20G G51A	0.909

Variant	self-cleavage
U20G G51U	0.916
U20C A31C	0.0231
U20C A31G	0.469
G19C A44U	0.0473
C18U U53G	0.644
C18U U53A	1
G19C A30U	0.161
C18U G34C	1.44
U20G A22C	0.816
U20G C50G	0.225
U20G C37U	0.594
U20G C37G	0.395
G19U A35C	0.809
G19A A41C	1.13
U20C G42C	0.313
U20C A24U	0.503
U20G A64G	0.511
U20C C46G	0.117
G19U G56U	0.179
U20C G56U	0.215
U20C G56C	0.216
U20G G34C	1.14
U20G G34A	1.19
C18U G54A	0.695

Variant	self-cleavage
C18U G54U	0.702
C18U A71G	1.09
C18U A71C	1.33
G19A A31G	0.7
G19A C50U	0.401
G19A C50G	0.247
U20A A36G	0.858
G19A U62C	0.278
C18U A49G	0.567
C18U A49C	0.193
G19C G54C	0.406
U20A U63C	0.147
G19U U58C	0.994
G19U U58G	0.672
U20A C37A	0.218
C18U U55G	0.382
U20A U67A	0.217
G19U G42C	0.492
G19A G21A	0.659
C18U A43U	0.102
U20G A28U	0.643
U20A G69U	0.252
U20A G69C	0.268
C18U G19A	1.08

Variant	self-cleavage
G19U C38G	0.225
U20C U53G	0.708
U20C U53A	0.861
C18U C66G	0.202
G19A A22C	0.677
G19A U20A	0.762
G19A U20C	1.12
C18U C37U	0.713
G19C A26U	0.719
G19U A47U	0.211
C18U G32A	0.124
C18U G32U	0.118
U20G A61G	0.257
U20G A61C	0.11
U20C A49C	0.172
G19U G54C	0.437
U20A U62C	0.446
U20A U62G	0.195
G19A A45U	0.1
G19A G69U	0.213
G19C C46G	0.088
G19C C46U	0.229
G19U G57U	0.207
U20A A39G	0.302

Variant	self-cleavage
U20A A39C	0.403
C18U G27C	0.228
U20G G27C	0.165
G19C U63C	0.168
G19C U63A	0.107
G19C U63G	0.123
U20C U60A	1.15
U20C U60C	0.724
C18U U20G	1.13
C18U C48A	0.134
C18U C48U	0.0571
U20G A39C	0.461
G19U A59C	0.242
G19U C37G	0.341
G19C A41U	1.11
G19C A41C	1.24
G19C A31C	0.143
G19U C48U	0.162
G19U A41U	1.24
G19A A39U	0.404
C18U C65U	0.373
G19U A31G	0.624
U20G A31C	0.164
